Legend:
[1] = molecular target: Endogenous NMDAR (GluN1 subunit) of mouse cortical neurons and mouse brain (mouse (endogenous in cortical neurons of Swiss mice)) (UniProt P35438)
[2] = molecular target: NMDAR of rat GluN1-1b WT with WT GluN2A, on transfected HEK-293 cells (rat) (UniProt Q00959)
[3] = molecular target: NMDAR of rat GluN1-1b WT with WT GluN2A, on transfected HEK-293 cells (rat) (UniProt Q00959); remark: listed apart in the source

UniProt Q00959, sequence (Q00959 whole entry, looked up): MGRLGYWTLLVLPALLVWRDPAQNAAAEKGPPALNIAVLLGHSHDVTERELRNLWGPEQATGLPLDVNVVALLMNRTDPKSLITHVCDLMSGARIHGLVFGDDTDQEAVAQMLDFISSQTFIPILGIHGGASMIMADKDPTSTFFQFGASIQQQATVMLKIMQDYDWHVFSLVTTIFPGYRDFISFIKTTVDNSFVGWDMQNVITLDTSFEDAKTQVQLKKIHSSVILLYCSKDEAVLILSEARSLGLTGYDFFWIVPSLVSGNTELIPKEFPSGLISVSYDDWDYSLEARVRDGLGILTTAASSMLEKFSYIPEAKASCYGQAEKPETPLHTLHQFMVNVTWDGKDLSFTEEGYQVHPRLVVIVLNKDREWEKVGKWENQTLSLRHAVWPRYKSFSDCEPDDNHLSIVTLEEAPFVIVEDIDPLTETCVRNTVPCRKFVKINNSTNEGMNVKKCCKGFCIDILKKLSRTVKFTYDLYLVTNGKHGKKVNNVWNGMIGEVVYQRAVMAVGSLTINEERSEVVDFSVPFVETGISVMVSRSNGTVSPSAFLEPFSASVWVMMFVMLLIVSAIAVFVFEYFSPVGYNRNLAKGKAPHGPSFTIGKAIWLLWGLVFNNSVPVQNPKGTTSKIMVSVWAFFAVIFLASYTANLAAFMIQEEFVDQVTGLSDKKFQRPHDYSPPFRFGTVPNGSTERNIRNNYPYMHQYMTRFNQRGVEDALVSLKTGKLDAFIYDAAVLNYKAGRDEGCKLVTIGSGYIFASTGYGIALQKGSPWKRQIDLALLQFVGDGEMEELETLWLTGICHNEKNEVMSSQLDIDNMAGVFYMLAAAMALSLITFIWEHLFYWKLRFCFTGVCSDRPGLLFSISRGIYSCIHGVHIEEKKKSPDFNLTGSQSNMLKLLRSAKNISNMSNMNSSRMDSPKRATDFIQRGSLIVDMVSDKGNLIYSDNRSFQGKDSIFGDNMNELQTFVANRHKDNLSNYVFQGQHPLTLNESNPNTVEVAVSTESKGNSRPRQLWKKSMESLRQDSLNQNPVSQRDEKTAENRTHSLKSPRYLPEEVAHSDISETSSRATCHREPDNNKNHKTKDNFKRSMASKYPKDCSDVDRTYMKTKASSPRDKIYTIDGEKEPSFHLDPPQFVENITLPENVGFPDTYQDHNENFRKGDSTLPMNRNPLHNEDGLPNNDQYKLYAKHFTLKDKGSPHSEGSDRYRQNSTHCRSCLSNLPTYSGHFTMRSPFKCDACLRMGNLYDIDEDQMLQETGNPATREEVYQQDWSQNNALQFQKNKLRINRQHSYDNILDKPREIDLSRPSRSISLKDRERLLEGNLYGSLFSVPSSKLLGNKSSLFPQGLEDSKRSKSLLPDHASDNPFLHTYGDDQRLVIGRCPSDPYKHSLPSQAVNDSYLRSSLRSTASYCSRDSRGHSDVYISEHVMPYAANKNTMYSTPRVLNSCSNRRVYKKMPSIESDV

NMDA-induced calcium influx (Fura-2 video imaging) in primary cultures of mouse cortical neurons; potentiation after 45 min with tPA 300 nM [1] [%]	NMDA-induced calcium influx in primary cultures of mouse cortical neurons; tPA 300 nM together with the antibody of clone 6C9B6 10 μg/ml (% of potentiation) [1]	NMDA-induced calcium influx (Fura-2 video imaging) in HEK-293 cells transfected with GluN1-1b WT and GluN2A; potentiation after 20 min with tPA 300 nM (% of potentiation) [2]	NMDA-induced calcium influx in HEK-293 cells transfected with GluN1-1b WT, GluN2A and tPA WT; change after 20 min with the antibody Glunomab 10 μg/ml (% of potentiation) [3]	Substance
31	38	27	–	Human tissue-type plasminogen activator (tPA, Actilyse) (enzyme)
–	–	–	-18	WT rat tissue-type plasminogen activator (tPA WT), expressed in HEK-293 cells (from UniProt P19637 33-559) (enzyme)

— publication PMC5260909
